Laboratory results: paper PMC4046141, “Exploring the evolutionary route of the acquisition of betaine aldehyde dehydrogenase activity by plant ALDH10 enzymes: implications for the synthesis of the osmoprotectant glycine betaine” (BMC Plant Biology, 2014)
Numbering of substitutions follows the chain as printed. Numbers in names are those of the source.

B1: SoBADH (Spinacia oleracea; A441F) (protein)
chain: MAFPIPARQLFIDGEWREPIKKNRIPVINPSTEEIIGDIPAATAEDVEVAVVAARRAFRRNNWSATSGAHRATYLRAIAAKITEKKDHFVKLETIDSGKPFDEAVLDIDDVASCFEYFAGQAEALDGKQKAPVTLPMERFKSHVLRQPLGVVGLISPWNYPLLMATWKIAPALAAGCTAVLKPSELASVTCLEFGEVCNEVGLPPGVLNILTGLGPDAGAPLVSHPDVDKIAFTGSSATGSKVMASAAQLVKPVTLELGGKSPIVVFEDVDIDKVVEWTIFGCFWTNGQICSATSRLLVHESIAAEFVDKLVKWTKNIKISDPFEEGCRLGPVISKGQYDKIMKFISTAKSEGATILYGGSRPEHLKKGYYIEPTIVTDISTSMQIWKEEVFGPVLCVKTFSSEDEAIALANDTEYGLAAAVFSNDLERCERITKALEVGFVWVNCSQPCFVQAPWGGIKRSGFGRELGEWGIQNYLNIKQVTQDISDEPWGWYKSP
notes: native homodimer
B2: SoBADH (Spinacia oleracea) (protein)
chain: B1 chain with F441A
notes: native homodimer
B3: SoBADH (Spinacia oleracea; A441S) (protein)
chain: B1 chain with F441S
notes: native homodimer
B4: SoBADH (Spinacia oleracea; A441V) (protein)
chain: B1 chain with F441V
notes: native homodimer
B5: SoBADH (Spinacia oleracea; A441T) (protein)
chain: B1 chain with F441T
notes: native homodimer

Columns and labels:
[1] = substrate: C[N+](C)(C)CC=O; assay: purified protein; details: 0.2 mM NAD+, 50 mM HEPES-KOH pH 8.0, 0.1 mM EDTA, 30 °C, apparent
[2] = substrate: NCCC=O; assay: spectrophotometric initial velocity, fit to substrate-inhibition equation; type: biochemical, Spinacia oleracea; details: 0.2 mM NAD+, 50 mM HEPES-KOH pH 8.0, 0.1 mM EDTA, 30 °C, apparent
Excerpt: spectrophotometric initial velocity, fit to substrate-inhibition equation on SoBADH

[3] = substrate: NC(=O)c1ccc[n+]([C@@H]2O[C@H](COP(=O)(O)OP(=O)(O)OC[C@H]3O[C@@H](n4cnc5c(N)ncnc54)[C@H](O)[C@@H]3O)[C@@H](O)[C@H]2O)c1; assay: spectrophotometric initial velocity, Michaelis-Menten fit; type: biochemical, Spinacia oleracea; details: fixed BAL at least 10x its Km, 50 mM HEPES-KOH pH 8.0, 0.1 mM EDTA, 30 °C, apparent, varied: cofactor
Excerpt: spectrophotometric initial velocity, Michaelis-Menten fit on SoBADH

| Protein | Km [1] | kcat [1] | kcat/Km [1] | Km [2] | kcat [2] | kcat/Km [2] | Km [3] | kcat [3] | kcat/Km [3] |
| --- | --- | --- | --- | --- | --- | --- | --- | --- | --- |
| B1 | 605 ± 26 µM | 0.29 s⁻¹ | 480 M⁻¹ s⁻¹ | 3.7 ± 0.0 µM | 0.34 ± 0.04 s⁻¹ | 92000 ± 11000 M⁻¹ s⁻¹ |  |  |  |
| B2 | 98 ± 15 µM | 3.36 s⁻¹ | 35000 M⁻¹ s⁻¹ | 3.9 ± 0.1 µM | 0.99 ± 0.04 s⁻¹ | 256000 ± 5000 M⁻¹ s⁻¹ | 22 ± 2 µM | 4.25 ± 0.16 s⁻¹ | 195000 ± 8000 M⁻¹ s⁻¹ |
| B3 | 119 ± 8 µM | 3.29 s⁻¹ | 28000 M⁻¹ s⁻¹ | 2.0 ± 0.5 µM | 1.12 s⁻¹ | 550000 ± 142000 M⁻¹ s⁻¹ | 29 ± 3 µM | 3.27 ± 0.18 s⁻¹ | 114000 ± 20000 M⁻¹ s⁻¹ |
| B4 | 512 ± 79 µM | 0.54 s⁻¹ | 1100 M⁻¹ s⁻¹ | 1.1 ± 0.3 µM | 0.52 ± 0.1 s⁻¹ | 473000 ± 216000 M⁻¹ s⁻¹ | 6.4 ± 0.5 µM | 0.51 s⁻¹ | 80000 ± 5000 M⁻¹ s⁻¹ |
| B5 | 180 ± 6 µM | 2.64 s⁻¹ | 15000 M⁻¹ s⁻¹ | 4.6 ± 0.5 µM | 1.5 ± 0.12 s⁻¹ | 326000 ± 13000 M⁻¹ s⁻¹ |  |  |  |
